Laboratory results taken from publication PMC2987821.

Biological target: Gp41-HR1 (HIV-1)
Assay: SPR

B1: D5 IgG (antibody, V domains shown)
VH: QVQLVQSGAEVRKPGASVKVSCKASGDTFSSYAISWVRQAPGQGLEWMGGIIPIFGTANYAQAFQGRVTITANESTSTAYMELSSLRSEDTAIYYCARDNPTLLGSDYWGAGTLVTVSS
VL: DIQMTQSPSTLSASIGDRVTITCRASEGIYHWLAWYQQKPGKAPKLLIYKASSLASGAPSRFSGSGSGTDFTLTISSLQPDDFATYYCQQYSNYPLTFGGGTKLEIK
Kd: 3.1 nM
koff: 0.00103 s⁻¹
kon: 335000 M⁻¹ s⁻¹
